Assay results as given in paper PMC3761233.

Key:
[1] = target: endogenous porcine aminopeptidase N on ST cells and IPI-21 cells (porcine (endogenous in ST and IPI-21 cells)) (UniProt P15145); assay: flow cytometry on cells
[2] = target: porcine aminopeptidase N, expressed from a plasmid on BHK-21 or HEK 293T cells (porcine) (UniProt P15145); assay: flow cytometry on cells

soluble TGEV spike protein (S1 subunit fused to the human IgG Fc portion) (from UniProt P07946 29-1447) (Fc fusion)
percent of cells bound (ST cells, after neuraminidase) (% of the cells) [1]: > 60
percent of cells bound (ST cells, without neuraminidase) (% of the cells) [1]: 50
percent of cells bound (BHK-21 cells expressing APN, after neuraminidase) (% of the cells) [2]: > 60
